“Also recorded” adds a separate entry of the source.
Key:
[1] = biological target: T1, TMPRSS2 (Homo sapiens, UniProt O15393); assay: In vitro proteolysis assay, TMPRSS2, fluorogenic substrate Boc-Gln-Ala-Arg-AMC; format: biochemical
T1 construct: TMPRSS2 (25 nM; recombinant protein produced in mammalian cells; #MBS1193731, MyBioSource, San Diego, CA); purchased MyBioSource, San Diego, CA #MBS1193731; host or cells: mammalian cells
Protocol: (§1) Figure 1 Effect of LF and the LF-derived peptides pLF1-pLF3 on the activity of serine proteases. Proteolytic activities of purified TMPRSS2 (A), plasmin (B), elastase (C), and trypsin (D) were measured with or without peptides pLF1, pLF2, pLF3, LF or the control peptide pCTR at 37°C in Tris-HCl buffer using the fluorogenic substrate Boc-Gln-Ala-Arg-AMC. The reaction was monitored using an ELISA reader for the indicated time intervals.
(§2) The proteolytic activities of plasmin (10 nM; from human plasma; #10602361001, Roche Diagnostics GmbH, Mannheim, Germany), trypsin (10 nM; from bovine pancreas; #T1005, Sigma-Aldrich, St. Louis, MO), elastase (20 nM; from porcine pancreas; #E1250, Sigma-Aldrich) and TMPRSS2 (25 nM; recombinant protein produced in mammalian cells; #MBS1193731, MyBioSource, San Diego, CA) were measured in a Nunc black fluorescence-based cell assay plate (Sigma-Aldrich) in Tris-HCl buffer (20 mM, pH 8.0, 150 mM NaCl). […] The reaction was measured using an ELISA plate reader (Synergy H1 BioTek microplate reader, Winooski, Vermont, U.S., or TECAN GENios, GMI, USA) under the excitation wavelength of 380 nm and the emission wavelength of 460 nm at the indicated time points.

[2] = biological target: T2, plasmin (Homo sapiens, UniProt P00747); assay: In vitro proteolysis assay, plasmin; format: biochemical; conditions: 37°C
T2 construct: purchased Roche Diagnostics GmbH, Mannheim, Germany #10602361001; host or cells: human plasma
Protocol: as §1
as §2, with “points. […]” for “points.”

[3] = test system: elastase; assay: In vitro proteolysis assay, elastase; format: biochemical, porcine; conditions: elastase 20 nM; 37°C, Tris-HCl buffer, Boc-Gln-Ala-Arg-AMC
Protocol: as §1, §2

[4] = test system: SARS-CoV-2 infection, Vero cells; format: cell-based, SARS-CoV-2 (African green monkey cells); conditions: 40 µg/mL, pre-incubation 40-60 min, mean of three independent experiments
[5] = test system: SARS-CoV-2 infection, Calu-3 cells; format: cell-based, SARS-CoV-2 (human cells); conditions: concentration not given, pre-incubation approx. 1 h, four independent experiments
[6] = test system: SARS-CoV-2; format: cell-based; conditions: summary statement
[7] = test system: COVID-19; conditions: supplementary LF treatment; cited from earlier work
Source text: (§3) The human glycoprotein LF is synthetized by exocrine glands and is present at high concentrations in secretory body fluids, particularly in milk, but also within inflammatory granules of neutrophils. […] This effect was mainly attributed to its immunomodulatory properties ([26]).

[8] = test system: SARS-CoV-2; conditions: cited from earlier work
Source text: as §3

[9] = test system: plasminogen; conditions: cited from earlier work
Source text: Since structures of the catalytic domains of serine proteases display a high level of identity ([10]), we have tested the inhibitory effect of LF and three LF-derived synthetic peptides against other serine proteases, including TMPRSS2, elastase and trypsin, in addition to plasmin. […] In contrast, uPA-independent Plg conversion by the bacterial enzyme streptokinase was not affected by LF ([11]). […] Similarly, only pLF1 but neith ...

[10] = test system: SARS-CoV-1; conditions: cited from earlier work
[11] = cited from earlier work
[12] = test system: SARS-CoV-2; conditions: cited from earlier work; remark: listed apart in the source
[13] = cited from earlier work; remark: listed apart in the source

T1 sequence (O15393 256-492 limits assumed): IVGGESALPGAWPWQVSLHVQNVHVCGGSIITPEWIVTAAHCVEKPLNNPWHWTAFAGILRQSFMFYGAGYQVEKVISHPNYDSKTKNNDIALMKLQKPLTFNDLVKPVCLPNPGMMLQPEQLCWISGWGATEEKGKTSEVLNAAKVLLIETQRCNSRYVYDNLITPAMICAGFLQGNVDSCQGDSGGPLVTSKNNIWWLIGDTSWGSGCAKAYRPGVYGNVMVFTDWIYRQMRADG
T1 sequence (O15393 106-255 limits assumed): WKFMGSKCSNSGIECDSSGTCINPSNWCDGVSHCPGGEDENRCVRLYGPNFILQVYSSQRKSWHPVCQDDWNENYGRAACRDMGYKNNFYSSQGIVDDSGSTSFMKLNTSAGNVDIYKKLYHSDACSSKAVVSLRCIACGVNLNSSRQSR
T2 sequence (P00747 581-810 limits assumed): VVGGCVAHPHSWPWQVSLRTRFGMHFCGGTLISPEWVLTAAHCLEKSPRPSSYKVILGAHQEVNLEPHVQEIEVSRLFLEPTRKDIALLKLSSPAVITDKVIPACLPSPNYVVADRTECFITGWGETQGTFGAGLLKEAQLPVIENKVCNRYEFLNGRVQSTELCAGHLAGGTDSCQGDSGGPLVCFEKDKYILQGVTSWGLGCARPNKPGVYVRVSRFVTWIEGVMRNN
T2 sequence (P00747 97-580 limits assumed): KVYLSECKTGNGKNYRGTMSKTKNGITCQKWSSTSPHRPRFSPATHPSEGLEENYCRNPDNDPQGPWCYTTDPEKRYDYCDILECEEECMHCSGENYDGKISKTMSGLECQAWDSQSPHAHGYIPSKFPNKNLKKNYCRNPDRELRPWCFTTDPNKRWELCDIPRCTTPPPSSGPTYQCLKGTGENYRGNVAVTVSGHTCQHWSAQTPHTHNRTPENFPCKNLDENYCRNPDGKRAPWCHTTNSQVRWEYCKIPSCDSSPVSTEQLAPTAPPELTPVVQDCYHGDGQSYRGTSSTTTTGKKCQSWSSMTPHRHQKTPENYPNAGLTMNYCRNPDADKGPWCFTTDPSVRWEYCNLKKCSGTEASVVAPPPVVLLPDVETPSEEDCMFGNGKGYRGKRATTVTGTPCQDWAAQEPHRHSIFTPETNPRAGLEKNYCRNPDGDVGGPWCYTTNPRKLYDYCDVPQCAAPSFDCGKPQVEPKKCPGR

B1: LF: human milk glycoprotein lactoferrin; recombinant human LF (L1294, Sigma-Aldrich) (protein, UniProt P02788 1-710, looked up)
chain: MKLVFLVLLFLGALGLCLAGRRRSVQWCAVSQPEATKCFQWQRNMRKVRGPPVSCIKRDSPIQCIQAIAENRADAVTLDGGFIYEAGLAPYKLRPVAAEVYGTERQPRTHYYAVAVVKKGGSFQLNELQGLKSCHTGLRRTAGWNVPIGTLRPFLNWTGPPEPIEAAVARFFSASCVPGADKGQFPNLCRLCAGTGENKCAFSSQEPYFSYSGAFKCLRDGAGDVAFIRESTVFEDLSDEAERDEYELLCPDNTRKPVDKFKDCHLARVPSHAVVARSVNGKEDAIWNLLRQAQEKFGKDKSPKFQLFGSPSGQKDLLFKDSAIGFSRVPPRIDSGLYLGSGYFTAIQNLRKSEEEVAARRARVVWCAVGEQELRKCNQWSGLSEGSVTCSSASTTEDCIALVLKGEADAMSLDGGYVYTAGKCGLVPVLAENYKSQQSSDPDPNCVDRPVEGYLAVAVVRRSDTSLTWNSVKGKKSCHTAVDRTAGWNIPMGLLFNQTGSCKFDEYFSQSCAPGSDPRSNLCALCIGDEQGENKCVPNSNERYYGYTGAFRCLAENAGDVAFVKDVTVLQNTDGNNNEAWAKDLKLADFALLCLDGKRKPVTEARSCHLAMAPNHAVVSRMDKVERLKQVLLHQQAKFGRNGSDCPDKFCLFQSETKNLLFNDNTECLARLHGKTTYEKYLGPQYVAGITNLKKCSTSPLLEACEFLRK
modifications: full-length
[1]; 37°C, Tris-HCl buffer, Boc-Gln-Ala-Arg-AMC
  inhibition of proteolytic activity of TMPRSS2 (in words): not able to block TMPRSS2 activity; also recorded: neither full-length LF nor pCTR inhibited; also recorded: did not block TMPRSS2 activity; also recorded: neither full-length LF nor other tested peptides derived from LF, nor the control peptide pCTR, significantly reduced
[1]; Figure 1A inset
  dose dependence of inhibition of TMPRSS2 (in words): no dose-dependent inhibition; also recorded: not by LF
[2]; Figure 1B inset: S-2251 in PBS
  dose dependence of inhibition of active plasmin (in words): no dose-dependent inhibition; also recorded: not by LF
[2]; plasmin 10 nM, Tris-HCl buffer, Boc-Gln-Ala-Arg-AMC
  inhibition of proteolytic activity of plasmin (in words): neither full-length LF nor a control peptide (pCTR), was able to inhibit; also recorded: neither full-length LF nor other tested peptides derived from LF, nor the control peptide pCTR, significantly reduced
[3]
  inhibition of proteolytic activity of elastase (in words): neither full-length LF nor other tested peptides derived from LF, nor the control peptide pCTR, significantly reduced
[4]
  inhibition of SARS-CoV-2 infection, Vero cells, 40 µg/mL: ≈ 38%
[5]
  inhibition of SARS-CoV-2 infection, Calu-3 cells: 60-70%
[6]
  SARS-CoV-2 infection of permissive cells (in words): prevented SARS-CoV-2 infection
[7]
  COVID-19 symptoms in clinical study (in words): significantly reduced COVID-19 symptoms
[8]
  SARS-CoV-2 infection in vitro (in words): found to inhibit SARS-CoV-2 infection in vitro
[9]
  binding to plasminogen (in words): binds to Plg via its highly cationic N-terminal region; also recorded: bound to Plg via its highly cationic N-terminal region
  inhibition of plasminogen conversion to plasmin (in words): able to inhibit activation of Plg through hindering the action of urokinase-type plasminogen activator (uPA); also recorded: blocked Plg conversion to the active serine protease plasmin
[9]; streptokinase as activator
  uPA-independent plasminogen conversion by streptokinase (in words): not affected
[10]
  SARS-CoV-1 infection (in words): inhibited the SARS-CoV-1 infection
[11]
  binding to heparin and HSPGs (in words): LF binding to both heparin and HSPGs was observed
[12]
  interferon responses (in words): enhancement of interferon responses
  iron homeostasis (in words): maintenance of iron homeostasis
  viral replication (in words): inhibition of viral replication
[13]; in vivo, po
  clinical benefit, oral (in words): major clinical benefit in human, particularly neonatal medicine
[13]; orally administered
  safety, oral (in words): considered safe and without adverse effects
